Measurements published in patent publication US11793825B2, “Biomarkers for predicting responsiveness to decitabine therapy” (The Regents of the University of Michigan, priority 2014, dated 2023).
“Also recorded” adds a separate entry of the source.

Columns and labels:
CMML patients [1] = experiment: GFM clinical trial cohort of CMML patients treated with Decitabine; assay type: in vivo, human; conditions: DAC 20 mg/m2/day x 5 days
Method: In order to independently validate the predictive accuracy of the SVM classifier, a second cohort of patients on which to test its performance was identified. Twenty-eight additional diagnostic CMML specimens from patients enrolled in a clinical trial from the Groupe Francophone des Myelodysplasies (GFM), all of whom had been treated with the same DAC regimen of 20 mg/m^2/day×5 days were collected and subjected to ERRBS (Table 2, Table 3). Specimens in this cohort consisted of sorted monocytes from peripheral blood (PB) and the cohort included 12 responder and 16 non-responder patients. The SVM classifier was applied blindly to these samples, without any prior knowledge of the therapeutic response labels for the cohort. Due to the stochastic nature of ERRBS, the CpG coverage is never identical across all samples, thereby leading to missing values for some regions of interest. In effect, only 6 out of the 21 features were present in all 28 GFM cohort samples. Therefore, an SVM classifier was built on these six shared features by training it on the 39 samples of the FISM cohort and then applying the trained classifier on the GFM cohort. As shown in FIG. 8D and FIG. 11B, despite this limitation the 6-feature classifier was still capable of correctly predicting response for 20/28 patients in the GFM cohort (accuracy=71%). […]

CMML patients [2] = experiment: FISM clinical trial cohort of CMML patients treated with Decitabine; assay type: in vivo, human; conditions: DAC 20 mg/m2/day x 5 days
Method: To determine whether particular genetic or epigenetic abnormalities are associated with DMTi sensitivity or resistance in this disease a cohort of primary CMML cases was studied. Bone marrow mononuclear cells (BM MNC) were collected at the time of diagnosis from 40 patients with de novo CMML. All patients included in this study were enrolled in a clinical trial of the Fondazione Italiana per le Sindromi Mielodisplastiche (FISM) and treated with DAC single agent as front-line therapy (20 mg/m^2/day×5 days) and response was evaluated after 6 cycles of treatment. Responsive patients (n=20) were defined as those who achieved either complete remission (CR), marrow complete remission (mCR), partial remission (PR) or hematological improvement (HI), as defined by the 2006 International Working Group (IWG) response criteria in myelodysplasia (see, e.g., Cheson, B. D., Blood. 2006; 108(2):419-425). Patients with either stable or progressive disease (SD and PD, respectively) were considered as having primary resistance to DAC (n=20). […] Using MiSeq to sequence DNA isolated from the diagnostic BM MNC targeted re-sequencing of a panel of genes mutated at frequencies greater than 5% in CMML was performed: SRSF2, TET2, ASXL1, NRAS, DNMT3A, RUNX1, U2AF1, TP53, JAK2, KIT, KRAS, SF3B1, EZH2, IDH1, and IDH2. […]

bone marrow cells = conditions: in vitro; cited from earlier work
[3] = system: primary CMML cells (BM MNC); experiment: Viability of primary CMML BM MNC in liquid culture; assay type: cell-based, human; conditions: chemokine 50 ng/mL plus 10 nM DAC, 72 h
Method: (§1) CD34+ cells were treated with one dose of CXCL4, CXCL7, or both (50 ng/mL each) or vehicle (PBS/0.1% BSA) and daily doses of 10 nM DAC for 3 days. After 3 days of in vitro treatment with DAC, the cells were plated in methylcellulose and incubated for 12-15 days before colonies were counted. Data represent mean+standard deviation (SD). […] Shown in the three panels are the results of three independent experiments. […] CMML MNC were treated in vitro for 72 h with 10 nM DAC alone or in the presence of 50 ng/mL of CXCL4, CXCL7, or both. Data represent mean+standard deviation (SD).
Finally, the ability of CXCL4 and CXCL7 to induce resistance in primary CMML cells was tested. BM MNC from diagnostic specimens collected from 3 patients known to be sensitive to DAC were placed in liquid culture and treated for 72 h with 10 nM DAC in the presence or absence of 50 ng/mL of CXCL4, CXCL7 or a combination of both. Viability was assessed after 72 hours.
(§2) Cell culture and colony forming assays: CD34+ cells were isolated from cryopreserved BM MNC from femoral head specimens using the Miltenyi Biotec CD34 microbead isolation kit (San Diego, CA) per the manufacturer's instructions. […] Live cell number and viability were determined by trypan blue exclusion. […] Colonies were counted after 12 to 15 days.

[4] = system: primary human CD34+ cells; experiment: CD34+ cell liquid culture, live cell number and viability by trypan blue exclusion; assay type: cell-based; conditions: 10 nM DAC daily for 3 days, with or without CXCL4/CXCL7 50 ng/mL each
Method: CD34+ cells were treated with one dose of CXCL4, CXCL7, or both (50 ng/mL each) or vehicle (PBS/0.1% BSA) and daily doses of 10 nM DAC for 3 days. After 3 days, live cell number (A) and viability (B) were assessed by trypan blue exclusion, and apoptosis (C) was analyzed by Annexin V and propodium iodide staining. The results shown are from one representative experiment out of two independent experiments.
Therefore, it was hypothesized that overabundance of CXCL4 and CXCL7 in the bone marrow microenvironment may act to overcome the effects of DAC. To test this, primary human CD34+ cells were cultured for 3 days in vitro with CXCL4 (50 ng/mL), CXCL7 (50 ng/mL) or a combination of both chemokines in either the presence or absence of low-dose DAC (10 nM) and then plated them in methylcellulose to test their clonogenic potential.
as §2, with “instructions. For CMML cells, the cryopreserved BM MNC were rapidly thawed at 37° C. and treated with DNAse to prevent cell clumping.” for “instructions.”

[5] = system: primary human CD34+ cells; experiment: Colony forming assay in methylcellulose; assay type: cell-based; conditions: chemokine 50 ng/mL (each) plus 10 nM DAC for 3 days
Method: as §1
Cell culture and colony forming assays: CD34+ cells were isolated from cryopreserved BM MNC from femoral head specimens using the Miltenyi Biotec CD34 microbead isolation kit (San Diego, CA) per the manufacturer's instructions. For CMML cells, the cryopreserved BM MNC were rapidly thawed at 37° C. and treated with DNAse to prevent cell clumping. Cells were plated in pre-stimulation media (IMDM with 20% BIT (Stem Cell Technologies, Vancouver, BC, Canada), IL-6 (20 ng/mL), SCF (100 ng/ml), TPO (100 ng/mL), FLT3L (10 ng/mL); Peprotech, Rocky Hill, N.J.) and recovered overnight. […] Live cell number and viability were determined by trypan blue exclusion. […] Colonies were counted after 12 to 15 days.

| Molecule | Median Survival (CMML patients [1]; non-responders (n=16)) [months] | Median Survival (CMML patients [1]; responders (n=12)) [months] | Median Survival (CMML patients [2]; non-responders (n=20)) [months] | Median Survival (CMML patients [2]; responders (n=20)) [months] | chemosensitivity of bone marrow cells to 5-fluorouracil (bone marrow cells) | effect of chemokine on the DAC-induced decrease in viability of primary CMML cells [3] | cell proliferation (live cell number) [4] | effect of chemokine on DAC-induced inhibition of colony formation [5] |
| --- | --- | --- | --- | --- | --- | --- | --- | --- |
| Nc1ncn([C@H]2C[C@H](O)[C@@H](CO)O2)c(=O)n1 [DAC, Decitabine] | 14.5 | 39 | 13.5 | 26.5 |  |  |  |  |
| CXCL4: chemokine CXCL4 (also known as PF4), Peprotech, used at 50 ng/mL (protein, UniProt P02776 32-101, looked up) Platelet factor 4: EAEEDGDLQCLCVKTTSQVRPRHITSLEVIKAGPHCPTAQLIATLKNGRKICLDLQAPLYKKIIKKLLES |  |  |  |  | can reduce the chemosensitivity of bone marrow cells to 5-fluorouracil | abrogated the effect of DAC; also recorded: this effect was lost | did not affect cell proliferation | did not have a significant impact on DAC-induced colony inhibition |
| CXCL7: chemokine CXCL7 (also known as PPBP), Peprotech, used at 50 ng/mL (protein, UniProt P02775 59-128, looked up, Neutrophil-activating peptide 2, chemokine CXCL7 (also known as PPBP), Peprotech, used at 50 ng/mL) Neutrophil-activating peptide …: AELRCMCIKTTSGIHPKNIQSLEVIGKGTHCNQVEVIATLKDGRKICLDPDAPRIKKIVQKKLAGDESAD |  |  |  |  | can reduce the chemosensitivity of bone marrow cells to 5-fluorouracil | abrogated the effect of DAC; also recorded: this effect was lost | did not affect cell proliferation | did not have a significant impact on DAC-induced colony inhibition |
